This assay addresses T1, Human recombinant His-tagged PALB2 (human, UniProt Q86YC2 1-1186).
T1 sequence: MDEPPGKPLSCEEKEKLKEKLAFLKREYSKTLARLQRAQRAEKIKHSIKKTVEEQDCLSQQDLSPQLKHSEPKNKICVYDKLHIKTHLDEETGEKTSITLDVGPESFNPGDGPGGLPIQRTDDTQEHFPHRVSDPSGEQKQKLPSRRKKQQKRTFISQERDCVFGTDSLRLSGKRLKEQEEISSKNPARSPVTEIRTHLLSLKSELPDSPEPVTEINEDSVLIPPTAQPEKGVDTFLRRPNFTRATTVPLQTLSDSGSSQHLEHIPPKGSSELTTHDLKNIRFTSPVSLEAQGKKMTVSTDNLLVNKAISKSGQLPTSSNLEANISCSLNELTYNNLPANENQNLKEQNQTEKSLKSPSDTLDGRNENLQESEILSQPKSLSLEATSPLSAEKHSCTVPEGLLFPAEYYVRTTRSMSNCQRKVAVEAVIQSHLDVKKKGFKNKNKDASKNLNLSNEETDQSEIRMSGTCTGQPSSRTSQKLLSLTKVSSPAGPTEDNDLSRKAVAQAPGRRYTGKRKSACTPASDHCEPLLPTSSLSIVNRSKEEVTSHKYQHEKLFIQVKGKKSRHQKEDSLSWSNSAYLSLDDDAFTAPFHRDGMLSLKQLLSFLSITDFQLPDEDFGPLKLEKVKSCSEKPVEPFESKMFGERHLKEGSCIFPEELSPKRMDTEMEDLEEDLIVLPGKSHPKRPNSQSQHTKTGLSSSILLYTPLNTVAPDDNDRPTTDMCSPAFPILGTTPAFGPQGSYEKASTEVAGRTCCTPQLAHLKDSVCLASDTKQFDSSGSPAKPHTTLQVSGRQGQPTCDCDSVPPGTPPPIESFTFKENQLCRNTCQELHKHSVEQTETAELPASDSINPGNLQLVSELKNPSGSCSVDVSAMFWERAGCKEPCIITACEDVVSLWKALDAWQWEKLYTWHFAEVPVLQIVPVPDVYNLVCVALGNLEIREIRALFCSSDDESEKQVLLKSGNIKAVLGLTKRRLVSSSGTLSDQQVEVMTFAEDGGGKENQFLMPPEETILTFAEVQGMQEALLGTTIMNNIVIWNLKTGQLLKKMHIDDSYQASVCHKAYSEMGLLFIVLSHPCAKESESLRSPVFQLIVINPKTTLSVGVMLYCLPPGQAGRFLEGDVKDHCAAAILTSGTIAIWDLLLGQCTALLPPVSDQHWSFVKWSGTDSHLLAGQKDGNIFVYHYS
The assay is described as follows: pull-down.

Regarding MPIGSKERPTFFEIFKTRCNKADLGPISLNWFEELSSEAP (domain or fragment) [BRCA2_(1-40)HA-His], the binding result was “binds”.

The values are drawn from article PMC9535758 (EMBO Reports, 2022).
